Measurements: patent US20160251435A1 (INHIBRX, published 2016)
Like-named read-outs stand apart in the source and are kept apart here. Each block holds one binder with its values, some of them ahead of it.

How the values were obtained:
Assay in all cases: flow cytometry on Raji cells, MFI (FL4)
[1] = target: T1, human CD47, endogenous cell surface form (Raji, CCRF-CEM cells) (human, UniProt Q08722 19-323)
T1 construct: the cells carry endogenous CD47; also called cell surface CD47
Experimental: (§1) Humanized antibodies were tested for their ability to bind Raji cells by flow cytometry (FIG. 7). […] Apparent affinities were determined by non-linear fits (Prism Graphpad Software) of the median fluorescence intensities at various antibody concentrations.

[2] = target: T1, human CD47, endogenous cell surface …; remark: listed apart in the source
Experimental: as §1

[3] = target: T1, human CD47, endogenous cell surface …; remark: listed apart in the source
Experimental: as §1

[4] = target: T1, human CD47, endogenous cell surface …; remark: listed apart in the source
Experimental: as §1

[5] = target: T1, human CD47, endogenous cell surface …; remark: listed apart in the source
Experimental: as §1

[6] = target: T1, human CD47, endogenous cell surface …; remark: listed apart in the source
Experimental: as §1

- EC50 (read off the curve) [1]: ~500 pM
B1: AB02.03 (antibody, V domains shown)
VH: QMQLVQSGAEVKKTGSSVKVSCKASGFNIKDYYLHWVRQAPGQALEWMGWIDPDNGDTEYAQKFQDRVTITRDRSMSTAYMELSSLRSEDTAMYYCNAAYGSSSYPMDYWGQGTTVTV
VL: DIQMTQSPSSLSASVGDRVTITCKASQDIHRYLSWYQQKPGKAPKLLIYRANRLVDGVPSRFSGSGSGTDFTFTISSLQPEDIATYYCLQYDEFPYTFGGGTKVEIK
notes: humanized variant of 2A1; also called AB2.03

- EC50 (read off the curve) [1]: ~200 pM
B2: AB02.04 (antibody, V domains shown)
VH: QMQLVQSGAEVKKTGSSVKVSCKASGFNIKDYYLHWVRQAPGQALEWMGWIDPDNGDTEYAQKFQDRVTITRDRSMSTAYMELSSLRSEDTAMYYCNAAYGSSSYPMDYWGQGTTVTV
VL: DIQMTQSPSSLSASVGDRVTITCKASQDIHRYLSWFQQKPGKAPKSLIYRANRLVDGVPSRFSGSGSGTDFTLTISSLQPEDFATYYCLQYDEFPYTFGGGTKVEIK
notes: humanized variant of 2A1; also called AB2.04

- EC50 (read off the curve) [2]: ~100 pM
B3: AB03.09 (antibody, V domains shown)
VH: EVQLVQSGAEVKKTGSSVKVSCKASGFNIKDYYLHWVRQAPGQALEWMGWIDPDNGDTEYAQKFQDRVTITRDRSMSTAYMELSSLRSEDTAMYYCNAAYGSSSYPMDYWGQGTTVTV
VL: DIQMTQSPSAMSASVGDRVTITCKASQDIHRYLSWFQQKPGKVPKHLIYRANRLVDGVPSRFSGSGSGTEFTLTISSLQPEDFATYYCLQYDEFPYTFGGGTKVEIK
notes: humanized variant of 2A1; also called AB3.09

- binding result [3]: binds
B4: AB6.14 (antibody, V domains shown)
VH: QMQLVQSGAEVKKTGSSVKVSCKASGFNIKDYYLHWVRQAPGQALEWMGWIDPDQGDTEYAQKFQDRVTITRDRSMSTAYMELSSLRSEDTAMYYCNAAYGSSSYPMDYWGQGTTVTV
VL: NIQMTQSPSAMSASVGDRVTITCRARQGIHRYLSWFQQKPGKVPKHLIYRANRLVSGVPSRFSGSGSGTEFTLTISSLQPEDFATYYCLQYDEFPYTFGGGTKVEIK

- EC50 (read off the curve) [3]: ~300 pM
B5: AB10.14 (antibody, V domains shown)
VH: QMQLVQSGAEVKKTGSSVKVSCKASGFNIKDYYLHWVRQAPGQALEWMGWIDPDNTDTEYAQKFQDRVTITRDRSMSTAYMELSSLRSEDTAMYYCNAAYGSSSYPMDYWGQGTTVTV
VL: NIQMTQSPSAMSASVGDRVTITCRARQGIHRYLSWFQQKPGKVPKHLIYRANRLVSGVPSRFSGSGSGTEFTLTISSLQPEDFATYYCLQYDEFPYTFGGGTKVEIK

- EC50 (read off the curve) [2]: ~200 pM
B6: AB17.05 (antibody, V domains shown)
VH: QMQLVQSGAEVKKTGSSVKVSCKASGYTFTDYYLHWVRQAPGQALEWMGWIDPDNGDTEYAQKFQDRVTITRDRSMSTAYMELSSLRSEDTAMYYCNAAYGSSSYPMDYWGQGTTVTV
VL: NIQMTQSPSAMSASVGDRVTITCKASQDIHRYLSWFQQKPGKVPKHLIYRANRLVDGVPSRFSGSGSGTEFTLTISSLQPEDFATYYCLQYDEFPYTFGGGTKVEIK

- binding result [4]: binds
B7: AB15.05 (antibody, V domains shown)
VH: QMQLVQSGAEVKKTGSSVKVSCKASGYTITYYYLHWVRQAPGQALEWMGWIDPDNGDTEYAQKFQDRVTITRDRSMSTAYMELSSLRSEDTAMYYCNAAYGSSSYPMDYWGQGTTVTV
VL: NIQMTQSPSAMSASVGDRVTITCKASQDIHRYLSWFQQKPGKVPKHLIYRANRLVDGVPSRFSGSGSGTEFTLTISSLQPEDFATYYCLQYDEFPYTFGGGTKVEIK

- EC50 (read off the curve) [1]: ~200 pM
B8: AB24.05 (antibody, V domains shown)
VH: EVQLVQSGAEVKKPGATVKISCKVSGFNIKDYYLHWVRQAPGQALEWMGWIDPDNGDTEYAQKFQDRVTITRDRSMSTAYMELSSLRSEDTAMYYCNAAYGSSSYPMDYWGQGTTVTV
VL: NIQMTQSPSAMSASVGDRVTITCKASQDIHRYLSWFQQKPGKVPKHLIYRANRLVDGVPSRFSGSGSGTEFTLTISSLQPEDFATYYCLQYDEFPYTFGGGTKVEIK

- EC50 (read off the curve) [5]: ~30 pM
- EC50 (read off the curve) [3]: ~70 pM
B9: AB6.13 (antibody, V domains shown)
VH: QMQLVQSGAEVKKTGSSVKVSCKASGFNIKDYYLHWVRQAPGQALEWMGWIDPDQGDTEYAQKFQDRVTITRDRSMSTAYMELSSLRSEDTAMYYCNAAYGSSSYPMDYWGQGTTVTV
VL: NIQMTQSPSAMSASVGDRVTITCRARQGIHRYLSWFQQKPGKVPKILIYRANRLVDGVPSRFSGSGSGTEFTLTISSLQPEDFATYYCLQYDEFPYTFGGGTKVEIK

- EC50 (read off the curve) [6]: ~100 pM
B10: AB23.05 (antibody, V domains shown)
VH: QMQLVQSGAEVKKTGSSVKVSCKASGFNIKDYYLHWVRQAPGQALEWMGWIDPDNGDTEYAQKFQDRVTITRDRSMSTAYMELSSLTSEDTAVYYCNAAYGSSSYPMDYWGQGTTVTV
VL: NIQMTQSPSAMSASVGDRVTITCKASQDIHRYLSWFQQKPGKVPKHLIYRANRLVDGVPSRFSGSGSGTEFTLTISSLQPEDFATYYCLQYDEFPYTFGGGTKVEIK

- binding result [1]: binds
B11: AB02.06 (antibody, V domains shown)
VH: QMQLVQSGAEVKKTGSSVKVSCKASGFNIKDYYLHWVRQAPGQALEWMGWIDPDNGDTEYAQKFQDRVTITRDRSMSTAYMELSSLRSEDTAMYYCNAAYGSSSYPMDYWGQGTTVTV
VL: DIQMTQSPSSLSASVGDRVTITCKASQDIHRYLSWYQQKPGKAPKRLIYRANRLVDGVPSRFSGSGSGTEFTLTISSLQPEDFATYYCLQYDEFPYTFGGGTKVEIK
notes: humanized variant of 2A1; also called AB2.06

- EC50 (read off the curve) [1]: ~300 pM
B12: AB25.05 (antibody, V domains shown)
VH: EVQLVQSGAEVKKPGATVKISCKVSGFNIKDYYLHWVQQAPGKGLEWMGWIDPDNGDTEYAQKFQDRVTITRDRSMSTAYMELSSLRSEDTAMYYCNAAYGSSSYPMDYWGQGTTVTV
VL: NIQMTQSPSAMSASVGDRVTITCKASQDIHRYLSWFQQKPGKVPKHLIYRANRLVDGVPSRFSGSGSGTEFTLTISSLQPEDFATYYCLQYDEFPYTFGGGTKVEIK

- binding result [3]: binds
B13: AB10.13 (antibody, V domains shown)
VH: QMQLVQSGAEVKKTGSSVKVSCKASGFNIKDYYLHWVRQAPGQALEWMGWIDPDNTDTEYAQKFQDRVTITRDRSMSTAYMELSSLRSEDTAMYYCNAAYGSSSYPMDYWGQGTTVTV
VL: NIQMTQSPSAMSASVGDRVTITCRARQGIHRYLSWFQQKPGKVPKILIYRANRLVDGVPSRFSGSGSGTEFTLTISSLQPEDFATYYCLQYDEFPYTFGGGTKVEIK

- EC50 (read off the curve) [6]: ~100 pM
B14: AB12.05 (antibody, V domains shown)
VH: QMQLVQSGAEVKKTGSSVKVSCKASGYTFTYYYLHWVRQAPGQALEWMGWIDPDNGDTEYAQKFQDRVTITRDRSMSTAYMELSSLRSEDTAMYYCNAAYGSSSYPMDYWGQGTTVTV
VL: NIQMTQSPSAMSASVGDRVTITCKASQDIHRYLSWFQQKPGKVPKHLIYRANRLVDGVPSRFSGSGSGTEFTLTISSLQPEDFATYYCLQYDEFPYTFGGGTKVEIK

- EC50 (read off the curve) [2]: ~200 pM
B15: AB2.09 (antibody, V domains shown)
VH: QMQLVQSGAEVKKTGSSVKVSCKASGFNIKDYYLHWVRQAPGQALEWMGWIDPDNGDTEYAQKFQDRVTITRDRSMSTAYMELSSLRSEDTAMYYCNAAYGSSSYPMDYWGQGTTVTV
VL: DIQMTQSPSAMSASVGDRVTITCKASQDIHRYLSWFQQKPGKVPKHLIYRANRLVDGVPSRFSGSGSGTEFTLTISSLQPEDFATYYCLQYDEFPYTFGGGTKVEIK

- EC50 (read off the curve) [5]: ~200 pM
B16: AB6.17 (antibody, V domains shown)
VH: QMQLVQSGAEVKKTGSSVKVSCKASGFNIKDYYLHWVRQAPGQALEWMGWIDPDQGDTEYAQKFQDRVTITRDRSMSTAYMELSSLRSEDTAMYYCNAAYGSSSYPMDYWGQGTTVTV
VL: NIQMTQSPSAMSASVGDRVTITCRARQGIHRYLSWFQQKPGKVPKLLIYRANRLVSGVPSRFSGSGSGTEFTLTISSLQPEDFATYYCLQYDEFPYTFGGGTKVEIK

- EC50 (read off the curve) [5]: ~50 pM
B17: AB2.13 (antibody, V domains shown)
VH: QMQLVQSGAEVKKTGSSVKVSCKASGFNIKDYYLHWVRQAPGQALEWMGWIDPDNGDTEYAQKFQDRVTITRDRSMSTAYMELSSLRSEDTAMYYCNAAYGSSSYPMDYWGQGTTVTV
VL: NIQMTQSPSAMSASVGDRVTITCRARQGIHRYLSWFQQKPGKVPKILIYRANRLVDGVPSRFSGSGSGTEFTLTISSLQPEDFATYYCLQYDEFPYTFGGGTKVEIK

- EC50 (read off the curve) [1]: ~500 pM
B18: AB02.07 (antibody, V domains shown)
VH: QMQLVQSGAEVKKTGSSVKVSCKASGFNIKDYYLHWVRQAPGQALEWMGWIDPDNGDTEYAQKFQDRVTITRDRSMSTAYMELSSLRSEDTAMYYCNAAYGSSSYPMDYWGQGTTVTV
VL: DIQMTQSPSSLSASVGDRVTITCRASQDIHRYLAWYQQKPGKVPKLLIYRANRLQSGVPSRFSGSGSGTDFTLTISSLQPEDVATYYCLQYDEFPYTFGQGTKVEIK
notes: humanized variant of 2A1; also called AB2.07

- EC50 (read off the curve) [2]: ~200 pM
B19: AB11.05 (antibody, V domains shown)
VH: QMQLVQSGAEVKKTGSSVKVSCKASGFNIKDYYLHWVRQAPGQALEWMGWIDPDNGDTEYAQKFQDRVTITRDRSMSTAYMELSSLRSEDTAMYYCNAAYGSSPYPMDYWGQGTTVTV
VL: NIQMTQSPSAMSASVGDRVTITCKASQDIHRYLSWFQQKPGKVPKHLIYRANRLVDGVPSRFSGSGSGTEFTLTISSLQPEDFATYYCLQYDEFPYTFGGGTKVEIK

- EC50 (read off the curve) [6]: ~100 pM
B20: AB22.05 (antibody, V domains shown)
VH: QMQLVQSGAEVKKTGSSVKVSCKASGFNIKDYYLHWVRQAPGQALEWMGWIDPDNGDTEYAQKFQDRVTITRDRSMSTAYLQLSSLRSEDTAMYYCNAAYGSSSYPMDYWGQGTTVTV
VL: NIQMTQSPSAMSASVGDRVTITCKASQDIHRYLSWFQQKPGKVPKHLIYRANRLVDGVPSRFSGSGSGTEFTLTISSLQPEDFATYYCLQYDEFPYTFGGGTKVEIK
